Laboratory results: patent EP3632462A1

Tests used:
[1] = target: IgG1-005-E345R/E430G/Y436I/S440K (human); assay: HP-SEC in PBS pH 7.4, equimolar mixture of the two antibodies
[2] = target: IgG1-005-E345R/E430G/S440K (human); assay: as above
[3] = target: Protein A (Staphylococcus aureus) (UniProt P38507); assay: ratio of the concentrations by Octet protein A and by A280
[4] = target: Protein A column (HiTrap MabSelectSuRe); assay: saturated 1.0 mL HiTrap MabSelectSuRe column loaded at pH 5.0 (antibody monomeric), A280 of the dialyzed eluate
[5] = target: Protein A (Staphylococcus aureus) (UniProt P38507); assay: apparent IgG concentration on Octet QK protein A sensortips against an IgG standard curve; A280 gave 2905 µg/ml
[6] = target: FcyRIIIa receptor, V158 (high affinity) variant (UniProt P08637); assay: cell-based or functional assay
C1q (human) = C1q (human) (UniProt P02745); assay: ELISA: antibody dilution series coated, 3% pooled human serum as source of C1q, anti-C1q detection
[7] = target: Protein A column (HiTrap MabSelectSuRe); assay: 1.0 mL HiTrap MabSelectSuRe column, pH 5.0 against neutral pH
[8] = target: IgG1-005-E345R/E430G/S440Y (human); assay: dynamic light scattering, 2.86 mg/mL in PBS pH 7.4, self-association
[9] = target: IgG1-005-E345R/E430G/S440Y (human); assay: HP-SEC with multiple angle light scattering (MALS), self-association
[10] = target: Protein A column (HiTrap MabSelectSuRe); assay: saturated 1.0 mL HiTrap MabSelectSuRe column loaded at neutral pH (hexamerization allowed), A280 of the dialyzed eluate

Sequence of FcyRIIIa receptor, V158 (high affinity) variant (P08637 other isoform, or with tags, fused parts or gaps mutant limits assumed): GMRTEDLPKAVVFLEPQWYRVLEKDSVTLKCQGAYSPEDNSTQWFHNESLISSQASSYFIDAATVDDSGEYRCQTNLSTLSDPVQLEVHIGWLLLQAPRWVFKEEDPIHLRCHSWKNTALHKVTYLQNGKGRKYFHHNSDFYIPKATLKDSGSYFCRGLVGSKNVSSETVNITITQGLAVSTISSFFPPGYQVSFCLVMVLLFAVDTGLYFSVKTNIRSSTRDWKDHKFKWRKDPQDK
Sequence of C1q (human) (P02745 23-245 limits assumed, chain 1 of 3): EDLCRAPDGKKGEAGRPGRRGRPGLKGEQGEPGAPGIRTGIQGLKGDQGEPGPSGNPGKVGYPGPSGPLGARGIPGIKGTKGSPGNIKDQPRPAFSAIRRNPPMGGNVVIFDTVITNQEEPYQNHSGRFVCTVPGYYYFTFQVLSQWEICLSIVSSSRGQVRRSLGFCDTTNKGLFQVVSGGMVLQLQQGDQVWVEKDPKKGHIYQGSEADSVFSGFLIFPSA
Sequence of C1q (human) (P02746 28-253 limits assumed, chain 2 of 3, further chain): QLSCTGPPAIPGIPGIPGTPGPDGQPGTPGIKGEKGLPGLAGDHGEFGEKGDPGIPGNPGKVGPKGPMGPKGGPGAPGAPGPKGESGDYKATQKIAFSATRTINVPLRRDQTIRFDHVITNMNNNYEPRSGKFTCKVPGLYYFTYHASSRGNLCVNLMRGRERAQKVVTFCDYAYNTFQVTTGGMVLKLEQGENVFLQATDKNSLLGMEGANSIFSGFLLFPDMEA
Sequence of C1q (human) (P02747 29-245 limits assumed, chain 3 of 3, further chain): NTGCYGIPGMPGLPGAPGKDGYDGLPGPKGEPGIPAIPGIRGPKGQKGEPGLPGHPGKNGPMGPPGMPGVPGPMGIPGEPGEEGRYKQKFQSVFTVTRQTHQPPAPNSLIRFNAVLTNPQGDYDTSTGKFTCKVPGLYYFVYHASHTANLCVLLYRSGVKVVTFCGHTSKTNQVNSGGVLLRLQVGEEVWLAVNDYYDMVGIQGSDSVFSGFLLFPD

For “IgG1-005-E345R/E430G/K439E/S440Y (antibody)”, the multimers (HP-SEC) [1] was 93% and the multimers (HP-SEC) [2] was 65%.
With IgG1-005-E345R/E430G/S440Y (antibody) the A280/Protein A x 100 (%) [3] was 71%, the yield of Protein A purification at 1.0 mL scale [4] was 29.1 mg and the Octet-Protein A [5] was 2050 µg/mL. It also gave an EC50 (ng/mL), ADCC reporter assay with Raji target cells [6] of 36 ng/mL, a Maximal signal (RLU), ADCC reporter assay with Raji target cells [6] of 394000 RLU and an EC50 (C1q (human)) of 0.52 µg/mL. For the same substance, the increase of protein yield, binding at pH 5.0 against neutral pH [7] was 36%, the apparent MW in solution [8] was 876 kDa and the monomeric subunits per complex (monomeric subunits) [8] was 6.17. For the same substance, the apparent average MW of the multimeric peak [9] was 772 kDa, the monomeric subunits per complex (monomeric subunits) [9] was 5.4 and the yield of Protein A purification at 1.0 mL scale [10] was 21.4 mg.
